Laboratory results published in US20260226500A1.
Several values for one entry are separate records, joined by “and”; a condition that tells them apart may be missing. Equal values may be shown once.

What was measured:
[1] = molecular target: OT-1 TCR (OVA-restricted T cell receptor) (mouse)
[2] = molecular target: P14 TCR (gp33-specific T cell receptor) (mouse)
Chain of P14 TCR (gp33-specific T cell receptor) (mouse) (chain, as listed by the source limits assumed): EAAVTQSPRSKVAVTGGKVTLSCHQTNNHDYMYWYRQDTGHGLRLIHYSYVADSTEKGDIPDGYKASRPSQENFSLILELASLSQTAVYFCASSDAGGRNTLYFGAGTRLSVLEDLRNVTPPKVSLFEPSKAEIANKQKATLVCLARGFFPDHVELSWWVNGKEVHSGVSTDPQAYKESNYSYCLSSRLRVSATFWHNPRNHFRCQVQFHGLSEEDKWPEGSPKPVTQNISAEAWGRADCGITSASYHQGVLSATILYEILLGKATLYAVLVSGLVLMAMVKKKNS

Chain of OT-1 TCR (OVA-restricted T cell receptor) (mouse) (chain, as listed by the source limits assumed, chain 1 of 2): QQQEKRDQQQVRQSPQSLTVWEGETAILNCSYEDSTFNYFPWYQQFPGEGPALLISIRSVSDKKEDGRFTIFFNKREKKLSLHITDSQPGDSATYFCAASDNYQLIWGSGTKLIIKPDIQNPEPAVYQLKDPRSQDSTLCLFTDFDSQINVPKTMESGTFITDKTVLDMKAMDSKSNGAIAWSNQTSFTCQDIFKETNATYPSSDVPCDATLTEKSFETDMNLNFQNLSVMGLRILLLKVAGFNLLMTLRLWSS
Chain of OT-1 TCR (OVA-restricted T cell receptor) (mouse) (chain, as listed by the source limits assumed, chain 2 of 2): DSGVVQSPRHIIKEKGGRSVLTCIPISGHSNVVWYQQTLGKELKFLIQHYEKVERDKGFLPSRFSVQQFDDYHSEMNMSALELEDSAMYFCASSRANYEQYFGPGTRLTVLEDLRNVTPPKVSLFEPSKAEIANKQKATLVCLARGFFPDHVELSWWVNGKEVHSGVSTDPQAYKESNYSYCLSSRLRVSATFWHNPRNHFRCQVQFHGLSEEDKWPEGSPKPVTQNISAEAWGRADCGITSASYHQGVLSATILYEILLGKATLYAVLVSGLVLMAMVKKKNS

Substance	percent OVA Pentamer+ GFP+ cells (Q2) (% (unit not given)) [1]	percent OVA Pentamer+ GFP- cells (Q3, upper left quadrant) (% (unit not given)) [1]	percent P14 TCR+ GFP- cells (Q1) (% (unit not given)) [2]
OVA Pentamer (peptide-MHC)	6.66	26	
P14 TCR (y-axis stain) (antibody)			89.5 and 96.7 and 36.5
